Target: MIWI (Mus musculus, UniProt Q9JMB7 1-862)
Assay: double-filter binding; piRNA-1 guide; 3.5 mM Mg2+; RBNS: 25 mM HEPES-KOH pH 7.9, 110 mM KOAc, 3.5 mM MgOAc, 0.01% Triton X-100, 2 mM DTT, 10% glycerol, 2.5 mg/ml BSA, 0.5 mg/ml yeast tRNA, 100 nM RNA library, 33 C 2 h; double-filter: 30 mM HEPES-KOH pH 7.5, 120 mM KOAc, 3.5 mM MgOAc, 2 mM DTT, 0.01% Triton X-100, 0.1 nM target, 33 C 2 h
Conditions: protein: recombinant, tags: SNAP, 3xFlag, label: 5' 32P

Chain of MIWI (Q9JMB7 whole entry): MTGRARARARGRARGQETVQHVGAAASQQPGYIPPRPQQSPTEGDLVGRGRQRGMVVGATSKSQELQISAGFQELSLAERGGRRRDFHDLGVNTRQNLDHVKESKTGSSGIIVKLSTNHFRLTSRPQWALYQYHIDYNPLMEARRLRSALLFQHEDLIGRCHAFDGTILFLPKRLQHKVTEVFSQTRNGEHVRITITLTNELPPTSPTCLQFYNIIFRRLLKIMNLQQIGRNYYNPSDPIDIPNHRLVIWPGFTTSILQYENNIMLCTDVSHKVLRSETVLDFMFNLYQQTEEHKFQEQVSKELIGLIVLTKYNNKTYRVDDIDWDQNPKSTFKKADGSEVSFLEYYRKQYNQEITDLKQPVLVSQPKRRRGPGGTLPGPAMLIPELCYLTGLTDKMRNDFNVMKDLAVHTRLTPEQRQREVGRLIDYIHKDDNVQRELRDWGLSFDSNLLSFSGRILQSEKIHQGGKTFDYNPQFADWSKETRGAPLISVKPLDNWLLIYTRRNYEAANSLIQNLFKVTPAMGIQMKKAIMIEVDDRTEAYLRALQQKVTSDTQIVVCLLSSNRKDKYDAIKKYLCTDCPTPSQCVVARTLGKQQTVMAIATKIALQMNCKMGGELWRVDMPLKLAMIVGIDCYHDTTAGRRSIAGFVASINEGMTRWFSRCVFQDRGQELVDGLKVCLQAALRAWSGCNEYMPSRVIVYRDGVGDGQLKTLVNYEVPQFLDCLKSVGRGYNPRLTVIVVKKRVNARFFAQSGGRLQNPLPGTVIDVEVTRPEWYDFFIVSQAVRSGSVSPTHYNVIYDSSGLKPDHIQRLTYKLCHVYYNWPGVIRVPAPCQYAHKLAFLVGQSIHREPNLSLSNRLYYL

| Binder | Kd (target pairs to guide g8-g16) [pM] | Kd (target pairs to guide g2-g10) [pM] |
| --- | --- | --- |
| AAAAAAAAAAAAAAACAACCUACAAAAAAA (ssRNA, 5' monophosphate) [piRNA-1 g8-g16 target] | 80 ± 20 |  |
| AAAAAAAAAAAAAAAAAAAAUACUACCUCA (ssRNA, 5' monophosphate) [piRNA-1 g2-g10 target] |  | 14 ± 9 |

— article PMC10338343, “Relaxed targeting rules help PIWI proteins silence transposons”
